Results reported in patent US20130115220A1, “METHOD FOR PREVENTION OR TREATMENT OF METABOLIC SYNDROME” (DAINIPPON SUMITOMO PHARMA CO., LTD., priority 2010, published 2013).

Test system: 3T3-L1 preadipocytes
Assay: Differentiation of 3T3-L1 preadipocytes into mature adipocytes, lipid droplet formation by oil-red-O
Type: cell-based
Settings: human rAIM used for AIM loading
Procedure: To examine the function of AIM produced by macrophage that infiltrated into adipose tissue on the surrounding adipocytes, an experiment was performed to load AIM in the culture process for differentiation of 3T3-L1 preadipocytes into mature adipocytes.
As AIM, recombinant AIM protein (rAIM) of mouse was used. rAIM was prepared by culturing human-derived HEK293T cells transfected with a vector expressing mouse AIM (pCAGGS-mAIM-HA plasmid) in a serum-free medium (FreeStyle™ 293 Expression Medium; Invitrogen). rAIM was purified from the culture supernatant thereof using an anti-HA antibody column. In other Reference Examples shown below, AIM used was a similar rAIM protein. AIM was loaded by adding AIM to a culture medium at a concentration of 5 μg/ml.
In addition, differentiation of 3T3-L1 cells was induced as shown in FIG. 13 by first proliferating 3T3-L1 cells by cultivating for 4 days (day(−2)-day 2), after which cultivating in a culture medium containing insulin, dexamethasone (DEX) and isobutylmethylxanthine (IBMX) for 2 days (day 2-day 4) to start differentiation induction stimulation, and further cultivating in a culture medium containing insulin for 2 days (day 4-day 6).
After the differentiation induction stimulation period (day 2-day 6), the cells were continuously cultured in a culture medium free of such differentiation induction stimulation factors. Then, the cells on day 10 day from the start of the differentiation induction stimulation (day 12) were stained with oil-red-O, and the state of differentiation of 3T3-L1 cells into mature adipocytes was observed.

B1: human rAIM: human AIM protein labeled with HA-tag produced in HEK293T cells (protein)
chain: SPSGVRLVGGLHRCEGRVEVEQKGQWGTVCDDGWDIKDVAVLCRELGCGAASGTPSGILYEPPAEKEQKVLIQSVSCTGTEDTLAQCEQEEVYDCSHDEDAGASCENPESSFSPVPEGVRLADGPGHCKGRVEVKHQNQWYTVCQTGWSLRAAKVVCRQLGCGRAVLTQKRCNKHAYGRKPIWLSQMSCSGREATLQDCPSGPWGKNTCNHDEDTWVECEDPFDLRLVGGDNLCSGRLEVLHKGVWGSVCDDNWGEKEDQVVCKQLGCGKSLSPSFRDRKCYGPGVGRIWLDNVRCSGEEQSLEQCQHRFWGFHDCTHQEDVAVICSG
modifications: left off: small tags and cut ends
notes: human AIM protein labeled with HA-tag produced in HEK293T cells
  differentiation of mouse-derived 3T3-L1 cells: similarly suppressed
